These results are taken from patent US20230374147A1 (HUMMINGBIRD BIOSCIENCE PTE, published 2023).

Where only a bound is given, the exact number is not on record here.

The target of experiment [1] is T1, Cyno TACI-His (Sino Biological, 90976-C08H) (cynomolgus macaque, UniProt G7PTR7 1-165).
T1 construct: Bought protein; also called cynomolgous macaque TACI; CyTACI
T1 sequence: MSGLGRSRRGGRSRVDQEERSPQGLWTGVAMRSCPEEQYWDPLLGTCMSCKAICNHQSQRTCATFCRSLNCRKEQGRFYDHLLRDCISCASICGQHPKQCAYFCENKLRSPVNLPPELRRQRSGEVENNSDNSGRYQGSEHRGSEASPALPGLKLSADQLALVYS
The experiment in a line: ELISA, coated Cyno TACI-His. (An ELISA detects its analyte on a solid surface through an enzyme-linked reagent.)

Experiment [2] has as its target T2, His-tagged cynomolgous macaque BCMA (Acro Biosystems, BCA-C52H7) (cynomolgus macaque, UniProt Q02223 1-54 (human entry)).
T2 construct: Bought protein; also called cyno BCMA; CyBCMA; not shown: His tag
Nature of the experiment: ELISA, coated Cyno BCMA-His.

The target of experiment [3] is T2, His-tagged cynomolgous macaque BCMA …. The experiment in a line: ELISA, coated His-tagged cynomolgus BCMA.
For experiment [4], the target named is T3, His-tagged human BCMA (Acro Biosystems, Cat. #BCA-H522y) (human, UniProt Q02223 1-54).
T3 construct: also called huBCMA; P1; not shown: His tag
T3 sequence: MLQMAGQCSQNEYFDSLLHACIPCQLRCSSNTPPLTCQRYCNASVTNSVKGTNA
Nature of the experiment: ELISA, reference antibody, coated His-tagged antigen.

In experiment [5] the target is T3, His-tagged human BCMA (Acro Biosystems, …). Nature of the experiment: BLI, His-tagged human BCMA on HIS1K tip, no APRIL; R2 0.9957.
Experiment [6] has the same target. Nature of the experiment: competition ELISA: His-tagged human BCMA binding to coated APRIL-Fc in the presence of the antibody.

B1: J6M0 (antibody, V domains shown)
VH: QVQLVQSGAEVKKPGSSVKVSCKASGGTFSNYWMHWVRQAPGQGLEWMGATYRGHSDTYYNQKFKGRVTITADKSTSTAYMELSSLRSEDTAVYYCARGAIYDGYDVLDNWGQGTLVTVSS
VL: DIQMTQSPSSLSASVGDRVTITCSASQDISNYLNWYQQKPGKAPKLLIYYTSNLHSGVPSRFSGSGSGTDFTLTISSLQPEDFATYYCQQYRKLPWTFGQGTKLEIK
notes: also called J6M0-hIgG1; anti-BCMA
By EC50 is commonly meant the concentration giving half of the maximal effect. Read a high EC50 as weaker potency. As usually defined, the EC50 (read off the curve) is the concentration at which the effect is half-maximal. Higher therefore signals a less potent agent. For orientation: Kd means the free concentration of one partner at which half of the binding sites on the other are occupied at equilibrium, for simple one-to-one binding. The low end stands for higher affinity, the high end for lower affinity. In general, IC50 refers to the concentration at which inhibition is half-maximal. Regarding B1, the binding result in experiment [1] is reported as “no binding (tested: log M about -7.7 (3 ug/ml per paragraph 742))”. The 50% effective concentration (EC50) in experiment [2] was determined as 15 pM; in experiment [4], 0.0126 µg/mL. In experiment [3], the 50% effective concentration (EC50 (read off the curve)) was approximately 0.01 µg/mL. Besides, in experiment [5], the equilibrium dissociation constant (Kd) was less than 1 pM. In addition, in experiment [6], the IC50 worked out at 920 pM.
